Experimental data taken from US20160017055A1.

Molecular target: wild type plasma kallikrein recombinant catalytic domain (Pichia pastoris) (human) (UniProt P03952)
Assay: enzyme inhibition assay: rate (F/s) of cleavage of a substrate peptide by PKal against [IgG] (nM), fitted to the Morrison equation (apparent Ki); panel 'X115-F02 vs WT'

B1: X115-F02 (antibody, human IgG1, kappa, V domains shown)
VH: EVQLLESGGGLVQPGGSLRLSCAASGFTFSHYIMMWVRQAPGKGLEWVSGIYSSGGITVYADSVKGRFTISRDNSKNTLYLQMNSLRAEDTAVYYCAYRRIGVPRRDEFDIWGQGTMVTVSS
VL: DIQMTQSPSTLSASVGDRVTITCRASQSISSWLAWYQQKPGKAPKLLIYKASTLESGVPSRFSGSGSGTEFTLTISSLQPDDFATYYCQQYNTYWTFGQGTKVEIKR
**Q.** For B1, which Ki is on record?
**A.** 0.09 nM
